± gives the standard deviation.
Assay: protein stability index of a GFP-peptide fusion (GPS, HEK-293T) (PSI 1-6); higher = more stable
[1] = treatment: DMSO, c terminus: a fixed tail appended
[2] = treatment: MLN4924 1 uM, 8 h, c terminus: a fixed tail appended
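Also: 24-mer peptide tiles fused after GFP, lentivirally expressed, FACS-sorted into six equal bins by GFP/DsRed ratio, decoded by Illumina sequencing, PSI is the read-weighted mean bin number.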

| Sequence | protein stability index [1] | protein stability index [2] | protein stability index (treatment: DMSO, c terminus: native) | protein stability index (treatment: MLN4924 1 uM, 8 h, c terminus: native) |
| --- | --- | --- | --- | --- |
| PLTSVCYPQDLPRPLRSREFPQFE [TRAF3IP2] | 3.75 ± 0.27 | 3.62 ± 0.4 |  |  |
| PLVTAIEIVSIWILSFILAIPEAI [EDNRA] | 3.48 ± 0.8 | 3.68 ± 0.15 |  |  |
| PMENLEKQLICPICLEMFTKPVVI [TRIM63] | 2.43 ± 0.089 | 2.38 ± 0.36 |  |  |
| PMQKLQDLVNRTPWKKCCFSGDGE [RBBP5] | 2.84 ± 0.15 | 2.94 ± 0.071 |  |  |
| PMTPEDPSFWDCFCFTEEIPIRNG [AASDHPPT] | 3.56 ± 0.093 | 3.67 ± 0.2 |  |  |
| PMVTSPREEQQLLASTSKPVVKLL [KCTD13] | 4.26 ± 0.32 | 4.25 ± 0.11 |  |  |
| PPAMPPPATHLSPALAPVPRNSCI [TRIM9] | 4.39 ± 0.13 | 4.38 ± 0.17 |  |  |
| PPPCKFGEGKLSKRLKHKDDSVMK [C22orf31] | 4.51 ± 0.15 | 4.61 ± 0.06 |  |  |
| PPPPPPAQTFLFQGQPVVNRPLSL [TRADD] | 3.71 ± 0.4 | 3.99 ± 0.29 |  |  |
| PQHAADTPKSGEPRVPEEAAQDRP [YJU2B] | 5.62 ± 0.26 | 5.42 ± 0.26 |  |  |
| PRVLTLSERPLDFLDLERPPTTPQ [MFF] | 4.26 ± 0.19 | 4.53 ± 0.41 |  |  |
| PSDDLTLLESSSSYKNLTLKFHKL [MCOLN1] | 3.24 ± 0.21 | 3.31 ± 0.24 |  |  |
| PSEKKVAIIRTPPKSPATPKQLRL [MAP2] | 4.2 ± 0.15 | 4.28 ± 0.15 |  |  |
| PSGAGKTVVGVPSGKVSSSSSSLG [ZC2HC1A] | 4.47 ± 0.35 | 4.65 ± 0.14 |  |  |
| PSIIPQEDPSQQFLQQSLERVYSL [INTS4] | 3.58 ± 0.17 | 3.58 ± 0.28 |  |  |
| PSNTGSRTTSVRCRGIPRGPVRPA [NEK8] | 3.89 ± 0.089 | 4 ± 0.17 |  |  |
| PSWAALNSSTWGSLKQALKGLSVE [SNX8] | 2.94 ± 0.17 | 3.46 ± 0.29 |  |  |
| PVCADLQAKILQCYRENTHQTLKC [CHCHD3] | 3.02 ± 0.23 | 3 ± 0.25 |  |  |
| PVCPTVCPPGGIHQVTVNESLLAP [KRT71] | 4.36 ± 0.082 | 4.16 ± 0.21 |  |  |
| PVNALVSHLLVVEPEKLYAMPDPA [ESRRA] | 2.88 ± 0.24 | 2.92 ± 0.27 |  |  |
| PWCPHLVAVCPIPAAGLDVTQPCG [HDAC6] | 2.4 ± 0.24 | 2.67 ± 0.34 |  |  |
| PYTPPATSHRRVTDVRGLEEFLSA [PLEKHN1] | 3.98 ± 0.19 | 3.91 ± 0.35 |  |  |
| QAAKQIKDGVTMAPAFRLSLKAKV [FSD1] | 3 ± 0.23 | 3.02 ± 0.33 |  |  |

| Sequence | protein stability index [1] | protein stability index [2] | protein stability index (treatment: DMSO, c terminus: native) | protein stability index (treatment: MLN4924 1 uM, 8 h, c terminus: native) |
| --- | --- | --- | --- | --- |
| QCNICGKCFSCNSNLHRHQRTHTG [ZNF263] | 4.44 ± 0.13 | 4.63 ± 0.29 |  |  |
| QCPYCQRRFNENAADRHINFCKEQ [ZC2HC1A] | 4.91 ± 0.38 | 5.09 ± 0.2 |  |  |
| QDFLLFSPEVESLPVASSSTLLPL [NFE2L1] | 3.34 ± 0.79 | 3.37 ± 0.57 |  |  |
| QEKLQVLMAEGLLPAVKVFLDWLR [SMG5] | 2.5 ± 0.7 | 2.57 ± 0.54 |  |  |
| QFEPQLTLWDVFGANKEVQELLER [RSAD1] | 3.24 ± 0.26 | 3.8 ± 0.47 |  |  |
| QGENQEHLVIAEMMELGSRSRGAS [FATE1] | 4.73 ± 0.34 | 4.73 ± 0.12 |  |  |
| QGEYPPGTSTWQFNFKFNLTEDMY [CNOT7] | 1.9 ± 0.42 | 2.15 ± 0.46 |  |  |
| QGLLHEAGSTDDRIVVPQRGRSTR [SPNS1] | 5.13 ± 0.32 | 5.14 ± 0.15 |  |  |
| QGRNSLWLSDWVTSYKVMVSNDSH [CPXM2] | 1.92 ± 0.25 | 2.47 ± 0.56 |  |  |
| QGSRSGVSGGSRSLNMSRRDSEST [PHTF1] | 4.86 ± 0.4 | 4.9 ± 0.22 |  |  |
| QIILENQKNFGLYVQEKRDGLKRR [RAD54B] | 2.41 ± 0.47 | 2.97 ± 0.32 |  |  |
| QKEGEFSTCFTELQRDFLKQRPTK [OAS1] | 4.26 ± 0.45 | 4.22 ± 0.3 |  |  |
| QLQDQDQKLLEQTQIIGEQNARLA [FBXO28] | 4.75 ± 0.18 | 4.74 ± 0.15 |  |  |
| QLRNVRERLAKNLVEKGVLTTEKQ [GOLPH3] | 3.68 ± 0.34 | 3.84 ± 0.17 |  |  |
| QLVSFQKLKLTNNHLDPFGHIILN [TBX5] | 2.33 ± 0.39 | 2.23 ± 0.33 |  |  |
| QNLLKELQDLALQGAKERAHQQKK [CHGA] | 4.75 ± 0.23 | 4.52 ± 0.14 |  |  |
| QNQPIDKARKTYERLVAQFPSSGR [CSTF3] | 3.75 ± 0.26 | 3.9 ± 0.24 |  |  |
| QPKKLHLCPLCGKNFSNNSNLIRH [ZNF263] | 3.02 ± 0.39 | 3.37 ± 0.64 |  |  |
| QPVMQSDRTAIRSDTTHLVTLGGV [KLHL13] | 3.88 ± 0.28 | 3.83 ± 0.35 |  |  |
| QPVQSKPQKASAPAADPPRYTFAP [PDLIM7] | 4.37 ± 0.27 | 4.44 ± 0.3 |  |  |
| QQAEKILKSMDKNGTMTIDWNEWR [SLC25A25] | 3.36 ± 0.47 | 3.56 ± 0.39 |  |  |
| QQLDLRWNNVGLLGGRALMNCLPS [LRRC45] | 2.65 ± 0.2 | 2.48 ± 0.2 |  |  |
| QRITQEQEKKLSFIEALIQQYQEQ [TRIM63] | 2.68 ± 0.36 | 3.02 ± 0.52 |  |  |

| Sequence | protein stability index [1] | protein stability index [2] | protein stability index (treatment: DMSO, c terminus: native) | protein stability index (treatment: MLN4924 1 uM, 8 h, c terminus: native) |
| --- | --- | --- | --- | --- |
| QRLPRSAPPGSLVTKVTAVDADAG [PCDHGC5] | 4.76 ± 0.21 | 4.82 ± 0.3 |  |  |
| QRRSRQNPQSPPQDSSVTSKRNIK [HDAC6] | 5.26 ± 0.51 | 5.27 ± 0.31 |  |  |
| QSWNNQAWNSPFYNCGEESLQSCM [NANOGP8] | 2.51 ± 0.18 | 2.48 ± 0.33 |  |  |
| QVAKREREAATKHSKASLPTGEGS [CHCHD6] | 5.32 ± 0.47 | 5.26 ± 0.33 |  |  |
| QVTASDSGDPPLSSNVSLSLFVLD [PCDHGA10] | 3.31 ± 0.4 | 3.48 ± 0.29 |  |  |
| QVVVLVRDNGDPSLSSTATVLLVL [PCDHGC5] | 3.25 ± 0.44 | 3.17 ± 0.23 |  |  |
| QYAIISEAWRLVEEGIVSPSDLDL [CRYL1] | 3.16 ± 0.19 | 3.21 ± 0.34 |  |  |
| QYKKEPVTTRQVRTIVEEVQDGKV [KRT17] | 5 ± 0.22 | 5.12 ± 0.29 |  |  |
| RAAYQQVIQPALPGQPLPGASVRG [TRAF3IP2] | 4.36 ± 0.35 | 4.18 ± 0.32 |  |  |
| RAKFKRKYKVKLVEKRAFREIQL [NOP53] |  |  | 2.56 ± 0.36 | 2.79 ± 0.17 |
| RAPLHSVGYTALVGSDAESWGWDL [SPSB4] | 2.81 ± 0.28 | 3.13 ± 0.17 |  |  |
| RAPPKRKRKRVKQRINTYVFVGNQ [PCMTD1] | 3.53 ± 0.15 | 3.41 ± 0.43 |  |  |
| RAVLGANDPEKNFLTTAIRPHGIF [NSDHL] | 2.73 ± 0.47 | 3.33 ± 0.039 |  |  |
| RCLHMFLQDEIIDKSYTPSKIRHA [SNX3] | 2.05 ± 0.58 | 1.92 ± 0.52 |  |  |
| RDKILTATIENNRVILEIDNARLA [KRT13] | 2.69 ± 0.29 | 2.83 ± 0.33 |  |  |
| RDNDHPDHSSRELSKILAKLERLK [FUT8] | 2.39 ± 0.25 | 2.27 ± 0.24 |  |  |
| REAVPALLGEPLAGPELDEMLREV [CABP4] | 5.13 ± 0.22 | 5.12 ± 0.31 |  |  |
| RECGLAAPRFSFNDPSGSEEADFL [IRX6] | 4.53 ± 0.21 | 4.34 ± 0.33 |  |  |
| REEEDRALPENEFKKQIWLLFEYP [KCNA4] | 2.7 ± 0.19 | 2.94 ± 0.46 |  |  |
| REENEKLRLENSSLFSQALKDEEA [CCDC89] | 5.41 ± 0.46 | 5.41 ± 0.37 |  |  |
| RELGPEELDELQAAFEEFDTDRDG [CABP4] | 5.63 ± 0.39 | 5.54 ± 0.35 |  |  |
| REVILKELAEATWCGISTDMWRSE [ZBED1] | 2.71 ± 0.62 | 2.93 ± 0.58 |  |  |
| REYLSEEVQAVHKNTTYDLIANIV [USP39] | 2.23 ± 0.23 | 2.32 ± 0.11 |  |  |

| Sequence | protein stability index [1] | protein stability index [2] | protein stability index (treatment: DMSO, c terminus: native) | protein stability index (treatment: MLN4924 1 uM, 8 h, c terminus: native) |
| --- | --- | --- | --- | --- |
| RFALRFIRPDPRSRVTDPVGDIVS [FAF2] | 2.49 ± 0.35 | 2.62 ± 0.31 |  |  |
| RGADDAMESSKPGPVQVVLVQKDQ [ATL3] | 5.09 ± 0.3 | 4.95 ± 0.62 |  |  |
| RGAQGVILVYDIANRWSFDGIDRW [RAB40B] | 2.29 ± 0.65 | 2.19 ± 0.15 |  |  |
| RGPSPVVLGSQDALPIATAFTEYV [FCHO1] | 3.14 ± 0.39 | 3.18 ± 0.3 |  |  |
| RHQRTHTGEKPYQCNICGKCFSCN [ZNF263] | 4.08 ± 0.43 | 4.37 ± 0.3 |  |  |
| RIDELIESGKEEGMKIDLIDGKGR [KMT5A] | 4.96 ± 0.23 | 4.85 ± 0.33 |  |  |
| RIFTSNTHSSVVLQGFDQLRLEGL [KLHL13] | 2.42 ± 0.18 | 2.49 ± 0.27 |  |  |
| RIKIRQCIGLQNLKLLDELPIAKV [ASB7] | 2.12 ± 0.31 | 2.19 ± 0.49 |  |  |
| RKCPVHGKTMELFCQTDQTCICYL [TRIM29] | 2.94 ± 0.61 | 3.72 ± 0.59 |  |  |
| RKKSGDLKKAKVQVERMREVNSRC [FBXO34] | 4.15 ± 0.17 | 4.38 ± 0.42 |  |  |
| RLLRDSEAFCHANCSGPAPAAKPD [P3H4] | 4.01 ± 0.35 | 4.01 ± 0.47 |  |  |
| RLRALGERHTMDLTVEGFQSWMWR [TMEM120A] | 2.38 ± 0.27 | 2.58 ± 0.49 |  |  |
| RNGQWSEPPKCLDPCVISQEIMEK [CFHR2] | 4.24 ± 0.063 | 4.07 ± 0.24 |  |  |
| RPARSTLDELLGRGMATKLLARPG [FBF1] | 2.61 ± 0.19 | 2.63 ± 0.17 |  |  |
| RQLMKVVNEMCPNITRIYNIGKSH [CPXM2] | 2.26 ± 0.12 | 2.71 ± 0.56 |  |  |
| RQLPPPPTPANEERRGGLPPLPLH [WAS] | 4.53 ± 0.22 | 4.52 ± 0.14 |  |  |
| RQLRRRALHPERAMDNHSDSEEEL [RETREG3] | 5.47 ± 0.15 | 5.51 ± 0.2 |  |  |
| RQTSTKAVQHFYNIKLEGKVPMHK [ESRRG] | 3.32 ± 0.11 | 3.5 ± 0.26 |  |  |
| RRDCDALMAGCIQEARERWNFDFV [CDKN1A] | 2.06 ± 0.25 | 2.05 ± 0.19 |  |  |
| RRGLLVSLNELMIVIGILSAYISN [SLC2A12] | 3.05 ± 0.72 | 2.67 ± 0.84 |  |  |

— the supplement of paper PMC10567573
